B1: glutathione reductase from Psychrobacter immobilis strain BNF08 (enzyme)
chain: MTKHYDYIAIGGGSGGIASINRAASYGKKCAVIEANQLGGTCVNLGCVPKKVMWYGAQIAEAIHKYAPDYGFNVDVKGFDFQKLVQSRQQYIENIHRSYDNNLAKNGVEVIKGFAKFVDTNTVEVNGELITADHILIATGGHPIQPDIKGAEYGIDSDGFFALNHLPKRVAIVGAGYIAVEIAGVLNSLGAEVHLYVRQHSPLRSFDHSVVEALLIEMEQDGIQLHTNTTLTEVNKNEDGSLTLCTENGSLDTTDCLIWAIGRAPSTDNINLQVTGVETNEIGKIKVDKFQNTNVKNIYAVGDIIENSVDLTPVAIAAGRRLSERLFNNKPNEHLDYTLIPTVIFTHPAIGTIGLSEIDAVERYGKENIKCYKSTFTSMYSAVTQHRQKCMMKLVCLGDEEKVIGLHGLGFGVDEMIQGFAVAIKMGATKADFDNTVAIHPTGSEEFVTMR
B2: glutathione reductase from E. coli (enzyme, UniProt P06715 1-450, looked up)
chain: MTKHYDYIAIGGGSGGIASINRAAMYGQKCALIEAKELGGTCVNVGCVPKKVMWHAAQIREAIHMYGPDYGFDTTINKFNWETLIASRTAYIDRIHTSYENVLGKNNVDVIKGFARFVDAKTLEVNGETITADHILIATGGRPSHPDIPGVEYGIDSDGFFALPALPERVAVVGAGYIAVELAGVINGLGAKTHLFVRKHAPLRSFDPMISETLVEVMNAEGPQLHTNAIPKAVVKNTDGSLTLELEDGRSETVDCLIWAIGREPANDNINLEAAGVKTNEKGYIVVDKYQNTNIEGIYAVGDNTGAVELTPVAVAAGRRLSERLFNNKPDEHLDYSNIPTVVFSHPPIGTVGLTEPQAREQYGDDQVKVYKSSFTAMYTAVTTHRQPCRMKLVCVGSEEKIVGIHGIGFGMDEMLQGFAVALKMGATKKDFDNTVAIHPTAAEEFVTMR
notes: glutathione reductase (GR) of Escherichia coli; cloned in earlier work of the same laboratory; also called E. coli GR; GR; source: E. coli C41 (DE3), purified (HisTrap HP)
B3: glutathione reductase from Enterobacter cloacae strain MF01 (enzyme)
chain: MTKHYDYIAIGGGSGGIASINRAAMYGQKCALIEAKALGGTCVNVGCVPKKVMWHAAQIREAIHMYGPDYGFDTTINHFDWEKLIASRTAYIDRIHTSYDNVLGKNNVDVIHGFARFVDAKTIEVNGETITADHILIATGGRPSHPNIPGAEYGIDSDGFFVLPALPERVAVVGAGYIAVELAGVINGLGAEAHLFVRKHAPLRSFDPLIVDTLVEVMNTEGPTLHTNAVPKAVIKNADGSLTLELEDGRSQTVDCLIWAIGREPANDNFNLAVTGVKTDEKGYIVVDKFQNTSVPGIYAVGDNTGAVELTPVAVAAGRRLSERLFNNKPDEHLDYSNIPTVVFSHPPIGTVGLTEPQAREQYGDDQVKVYKSAFTAMYTAVTSHRQPCRMKLVCVGPEEKIVGIHGIGFGMDEILQGFAVALKMGATKKDFDNTVAIHPTAAEEFVTMR

Key:
[1] = molecular target: glutathione reductase from Pseudomonas lini strain BNF22 (Pseudomonas lini (strain BNF22)); test: SEC; Superdex 200; 20 mM sodium phosphate pH 7.4, 200 mM NaCl, 1 mM β-mercaptoethanol; elution times compared to a gel filtration protein standard; homodimer
[2] = molecular target: the molecule itself; test: as above

Molecule | stoichiometry N [1] | stoichiometry N [2]
glutathione reductase from Pseudomonas lini strain BNF22 (enzyme) | 2 | 
B1 |  | 2
B2 |  | 2
B3 |  | 2

Reference: publication PMC11855334, “Exploring the Potential of Glutathione Reductase Overexpression to Improve Tellurium Nanoparticle Production in Escherichia coli” (International Journal of Molecular Sciences, 2025)
